The source of these data is article PMC10871292.

The assay addresses Transglutaminase 2 (TG2), wildtype, human, recombinant (human) (UniProt P21980). Kind of assay: SAXS.

As to “Transglutaminase 2 (TG2), wildtype, human, recombinant (from UniProt P21980 1-687) (enzyme)”, the percent dimer (initial state, t=0 ms) came to 61% and the percent monomer (initial state, t=0 ms) is 39%.
